Assay results as given in US20100330095A1 (U3 PHARMA, published 2010).

What was measured:
[1] = target: T1, human Sky (human, UniProt Q06418 41-890); assay: flow cytometry, transiently transfected HEK293T cells
T1 construct: whole, on cells; Transiently expressed on HEK293T cells (pcDNA3-hSky); also called hSky
T1 sequence (looked up): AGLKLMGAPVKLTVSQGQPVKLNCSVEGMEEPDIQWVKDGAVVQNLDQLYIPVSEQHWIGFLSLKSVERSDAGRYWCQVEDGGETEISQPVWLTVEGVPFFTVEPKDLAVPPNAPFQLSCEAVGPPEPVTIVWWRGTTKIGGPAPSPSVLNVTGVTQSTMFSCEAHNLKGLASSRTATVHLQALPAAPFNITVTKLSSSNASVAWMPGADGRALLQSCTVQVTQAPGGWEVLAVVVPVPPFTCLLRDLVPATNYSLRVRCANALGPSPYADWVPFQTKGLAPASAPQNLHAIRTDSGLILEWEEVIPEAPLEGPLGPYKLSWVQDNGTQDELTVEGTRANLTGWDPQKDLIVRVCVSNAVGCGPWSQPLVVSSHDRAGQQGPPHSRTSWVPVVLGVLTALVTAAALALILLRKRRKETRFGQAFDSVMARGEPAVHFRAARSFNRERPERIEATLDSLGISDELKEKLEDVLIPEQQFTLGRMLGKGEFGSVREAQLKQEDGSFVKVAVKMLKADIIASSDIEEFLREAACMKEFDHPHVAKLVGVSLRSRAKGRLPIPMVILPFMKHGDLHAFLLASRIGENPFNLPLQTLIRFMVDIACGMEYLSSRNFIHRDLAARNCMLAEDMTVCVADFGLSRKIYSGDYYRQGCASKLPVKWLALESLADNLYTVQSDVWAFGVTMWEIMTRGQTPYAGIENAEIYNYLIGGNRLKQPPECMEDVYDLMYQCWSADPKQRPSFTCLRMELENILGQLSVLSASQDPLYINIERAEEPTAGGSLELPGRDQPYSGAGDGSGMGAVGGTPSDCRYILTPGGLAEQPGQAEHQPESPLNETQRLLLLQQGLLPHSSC
Procedure: (§1) FIG. 3. Flow cytometry analysis of cross-reactivity of rat-anti AXL antibodies with mouse and cynomolgus monkey AXL as well as human Mer and Sky. HEK293T fibroblasts were transiently transfected with pcDNA3, pcDNA3-hAXL, pcDNA3 mAXL, pcDNA3-cyAXL, pcDNA3-hMer, or pcDNA3-hSky. […] See text for details.
(§2) For FACS analysis, 2×10⁵ cells were harvested with 10 mM EDTA in PBS, washed once with FACS buffer (PBS, 3% FCS, 0.4% azide) and seeded on a 96 well round bottom plate. […] After incubation on ice for 1 h, cells were washed twice with chilled FACS buffer and resuspended with PE-conjugated donkey anti-rat (Jackson) secondary antibody diluted 1:50 in FACS buffer (100 μl/well) or PE-conjugated donkey anti-mouse secondary antibody for control. Protected from light, cells were incubated on ice for 30 min, washed twice with FACS buffer and analyzed using an Epics XL-MCL flow cytometer (Beckman Coulter).

[2] = target: T2, mouse AXL (mouse, UniProt Q00993 19-888); assay: as above
T2 construct: whole, on cells; Transiently expressed on HEK293T cells (pcDNA3-mAXL); also called mAXL
T2 sequence (looked up): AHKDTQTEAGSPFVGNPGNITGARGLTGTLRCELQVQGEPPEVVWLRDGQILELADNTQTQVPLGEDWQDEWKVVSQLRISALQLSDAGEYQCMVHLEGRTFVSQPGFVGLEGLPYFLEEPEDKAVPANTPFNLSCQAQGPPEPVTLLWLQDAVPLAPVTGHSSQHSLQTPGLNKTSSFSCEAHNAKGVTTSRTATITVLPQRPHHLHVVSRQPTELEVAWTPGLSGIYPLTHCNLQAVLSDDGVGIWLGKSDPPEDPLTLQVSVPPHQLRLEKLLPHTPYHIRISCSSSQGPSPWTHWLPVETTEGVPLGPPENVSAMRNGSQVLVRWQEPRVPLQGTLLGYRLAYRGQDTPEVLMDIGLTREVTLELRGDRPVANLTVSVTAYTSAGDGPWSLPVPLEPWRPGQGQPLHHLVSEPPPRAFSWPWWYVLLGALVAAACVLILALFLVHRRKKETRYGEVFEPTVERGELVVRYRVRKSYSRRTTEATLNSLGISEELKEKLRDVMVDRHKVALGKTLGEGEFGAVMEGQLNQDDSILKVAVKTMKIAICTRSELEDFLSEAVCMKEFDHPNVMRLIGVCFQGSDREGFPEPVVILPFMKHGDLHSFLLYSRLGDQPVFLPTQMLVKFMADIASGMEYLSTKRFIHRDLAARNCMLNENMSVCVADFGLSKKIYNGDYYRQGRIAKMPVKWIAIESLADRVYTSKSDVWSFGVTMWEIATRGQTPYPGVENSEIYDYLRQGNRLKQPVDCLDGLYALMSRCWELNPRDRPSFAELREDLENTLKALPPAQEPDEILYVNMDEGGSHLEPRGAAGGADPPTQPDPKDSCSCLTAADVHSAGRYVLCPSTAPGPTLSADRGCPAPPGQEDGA
Procedure: as §1, §2

B1: I 11B7 (antibody, V domains shown)
VH: EVQLQESGPGLVKPSQSLSLTCSVTGYSITSNYWGWIRKFPGDKMEWMGYITYSGSTSYNPSLKSRISITRDTSKNQFFLQLNSVTSEDTATYYCAITTFYYWGQGVMVTVSS
VL: DIQMTQAPSSLPASLGDRVTITCRASQDIGNYLRWFQQKPGKSPRLMISGATNLAAGVPSRFSGSRSGSDYSLTISSLESEDMADYYCLQSKESPWTFGGGTKLELK
notes: rat hybridoma antibody, antagonistic
binding result [1]: no binding (tested: 10 µg/ml) | binding result [2]: no binding (tested: 10 µg/ml)

B2: I 10D12 (antibody, V domains shown)
VH: EVQLQESGPGLVKPSQSLSLTCSVTGYSITSNYWGWIRKFPGNKMEWMGYITNSGGTAYNPSLKSRISITRDTSKNQFFLQLNSVIPEDSATYFCSRTPWDWGQGVMVTVSS
VL: DIQMTQAPSSLPASLGDRVTIACRASQDIGNYLRWFQQKPGKSPRLMISGATNLAAGVPSRFSGSRSGSDYSRTISSLESEDMADYYCLQSKESPWTFGGGTKLELK
notes: rat hybridoma antibody, antagonistic; subclass G1
binding result [1]: no binding (tested: 10 µg/ml) | binding result [2]: no binding (tested: 10 µg/ml)

B3: III 11D5 (antibody, rat IgG2a, V domains shown)
VH: EVQLQESGPGLVKPSQSLSLTCSVTGYSITSNYWGWIRKFPGNKMEWIGHITNSGNTTYNPSLKSRISISRDTSRNQFFLQLNSVTTEDTATYYCAKGAFDYWGQGVMVTVSS
VL: DIQMTQSPSSMSTSLGDRVTITCRASQDIGNYLSWFQQKVGKSPRRMIYGAIKLAVGVPSRFSGSRSGSDYSLTISSLESEDMAIYYCLQYIQFPLTFGSGTKLELK
notes: as for B1
binding result [1]: no binding (tested: 10 µg/ml) | binding result [2]: no binding (tested: 10 µg/ml)
